The results in this text go back to patent publication US20100022402A1, “Methods and Compositions for the In Vitro High-Throughput Detection of Protein/Protein Interactions” (priority 2004, published 2010).

The target in assay [1] is DcDL1 lambda phage displaying gpD-c-myc fusion protein (bacteriophage lambda) (UniProt P03712). As to the kind of experiment: bio-panning of DcDL1 SCO and DCO phage in 9E10-coated wells.
For assay [2] the target is unchanged. Briefly: bio-panning in 9E10-coated wells, reference DL1 phage.
In assay [3] the target is Lambda phage displaying SS1 scFv (DcSS1DL1), gpD-scFv-c-myc fusion protein (bacteriophage lambda) (UniProt P03712). Briefly: phage ELISA on anti-c-myc-coated plates, reference DcDL1.
Assay [4] deals with λD-Ubiquitin display phage (gpD fused to Ubiquitin) (bacteriophage lambda) (UniProt P03712). Briefly: apparent KD from titration of λD-Cue:λD-Ubiquitin co-infection by free protein.
The target of assay [5] is λD-CUE display phage (gpD fused to the CUE domain of Vps9p) (bacteriophage lambda) (UniProt P03712). The description is as above.
Assay [6] has the same target. Briefly: competition: free protein titrates λD-CUE:λD-Ubiquitin co-infection (MOI 0.04), loss of double resistant multilysogens.
Assay [7] addresses λD-Ubiquitin display phage (gpD fused to Ubiquitin) (bacteriophage lambda) (UniProt P03712). Briefly: cell-based or functional assay.

pIC50, pKd: −log10 of the molar value.

Chain of free wild type CUE protein (wtCUE, 50 amino acids) (P54787 402-451 limits assumed): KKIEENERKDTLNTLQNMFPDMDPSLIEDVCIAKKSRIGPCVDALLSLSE

On to Anti-c-myc mAb, 9E10 (antibody), for which, in assay [1], the recovery of phages (percent of phages added) stood at 2%. In assay [2], this substance returned a fold recovery over DL1 phage of over 200 fold. The fold less binding than DcDL1 in assay [3] worked out at 30 times less.
As usually defined, the pKd is −log10 of the Kd, conventionally taken in molar units. For “free wild type CUE protein (wtCUE, 50 amino acids) (from UniProt P54787 402-451)”, in assay [4], the pKd was 8.70.
What is called pIC50 is the IC50 on a negative log10 scale, so that one unit is a factor of ten. A higher pIC50 goes with a small IC50. Turning to “free wild type Ubiquitin protein (wtUbiquitin)”, the pKd in assay [5] was 7.70. In assay [6], this substance gave a pIC50 of 8.52.
Consider “λD-CUE display phage (gpD fused to the CUE domain of Vps9p) (from UniProt P03712 1-110; P54787 402-451)”, for which, in assay [7], the Cml^r/Kan^r double resistant lysogens at an MOI of 0.008 (8×10^5 phages infecting 1×10^8 cells) was found to be 150 lysogens, the MOI at which double resistant multilysogens begin to contribute to the stable lysogen population is 0.0001 MOI, the MOI at which formation of double resistant multilysogens begins amounted to 0.03 MOI and the maximum saturation point of double resistant multilysogens (% of the available cells) turned out to be 25.
